Test results taken from the supplement of paper PMC11136658.

System: peptide library, one residue held at a place counted from the Y acceptor
Test: relative phosphorylation of the sub-library (ratio to the mean residue at this position); higher = residue favoured
Outline: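 Every value reflects phosphorylation relative to the mean randomized residue. The sum of the 18 randomized residues, or 16 in the Ser/Thr-free library, served to normalize intensities at each position, which were then multiplied by that number. Intensities came from phosphorimaging with ImageQuant of biotinylated Tyr-centred peptides captured on streptavidin membranes after 90 min with purified recombinant kinases and 50 μM ATP plus γ-32P-ATP.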

FGFR1, construct: aa456-765, human, sequence (P11362 456-765, looked up): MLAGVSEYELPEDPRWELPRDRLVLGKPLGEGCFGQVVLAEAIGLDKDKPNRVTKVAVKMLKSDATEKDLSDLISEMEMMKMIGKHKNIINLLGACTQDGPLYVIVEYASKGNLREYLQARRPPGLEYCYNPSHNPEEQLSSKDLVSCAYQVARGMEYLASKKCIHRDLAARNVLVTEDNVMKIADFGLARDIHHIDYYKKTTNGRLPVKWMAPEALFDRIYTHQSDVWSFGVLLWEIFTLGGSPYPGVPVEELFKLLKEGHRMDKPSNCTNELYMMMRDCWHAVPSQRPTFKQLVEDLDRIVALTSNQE
FGFR4, construct: aa442-end, human, sequence (P22455 442-802, looked up): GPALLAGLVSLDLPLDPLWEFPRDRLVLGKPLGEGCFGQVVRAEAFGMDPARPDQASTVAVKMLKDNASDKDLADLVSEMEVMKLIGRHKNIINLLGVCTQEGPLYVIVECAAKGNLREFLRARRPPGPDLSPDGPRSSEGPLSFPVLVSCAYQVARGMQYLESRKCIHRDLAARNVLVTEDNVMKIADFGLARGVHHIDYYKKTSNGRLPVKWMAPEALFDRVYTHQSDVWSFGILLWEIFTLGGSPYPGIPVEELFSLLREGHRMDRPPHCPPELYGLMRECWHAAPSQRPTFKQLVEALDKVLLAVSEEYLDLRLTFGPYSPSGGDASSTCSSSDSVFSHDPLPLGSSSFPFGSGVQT

FGFR1, construct: aa456-765, human (from UniProt P11362)
relative phosphorylation
Conditions | at +1 | at +2 | at +3 | at +4 | at +5 | at -1 | at -2 | at -3 | at -4 | at -5
A fixed | 1.01 | 0.593 | 0.546 | 0.853 | 0.912 | 0.836 | 0.925 | 0.939 | 1.11 | 1.05
D fixed | 0.332 | 0.728 | 0.463 | 0.791 | 1.17 | 2.09 | 1.05 | 1.22 | 1.02 | 1.05
E fixed | 0.68 | 1.06 | 0.407 | 0.769 | 1.06 | 1.29 | 1.17 | 1.23 | 1.09 | 0.859
F fixed | 1.81 | 1.68 | 1.57 | 1.12 | 0.897 | 1.06 | 0.673 | 0.814 | 0.905 | 0.897
G fixed | 0.332 | 0.406 | 0.514 | 1.27 | 1.22 | 0.557 | 1.19 | 1.08 | 1.22 | 1.12
H fixed | 1.62 | 0.924 | 0.968 | 1.06 | 0.867 | 1.17 | 1.17 | 1.03 | 1.05 | 1.05
I fixed | 1.66 | 1.14 | 2.43 | 1.13 | 0.744 | 1.3 | 0.907 | 0.816 | 0.823 | 0.921
K fixed | 0.379 | 0.581 | 0.302 | 0.866 | 0.903 | 0.461 | 1.03 | 1.01 | 1.02 | 1.12
L fixed | 0.938 | 1.35 | 1.79 | 1.13 | 0.737 | 0.921 | 0.829 | 0.69 | 0.769 | 0.891
M fixed | 1.07 | 1.07 | 1.65 | 0.981 | 0.822 | 0.758 | 0.826 | 0.917 | 0.803 | 0.95
N fixed | 0.428 | 0.954 | 0.415 | 0.758 | 0.999 | 1.35 | 1.25 | 1.34 | 1.02 | 1.24
P fixed | 1.13 | 0.702 | 0.621 | 1.3 | 1.72 | 0.954 | 0.919 | 0.962 | 1.22 | 0.954
Q fixed | 0.794 | 0.963 | 0.796 | 0.955 | 0.999 | 1.09 | 1.24 | 1.05 | 1.2 | 1.19
R fixed | 0.494 | 0.669 | 0.494 | 0.914 | 1.05 | 0.354 | 0.969 | 0.95 | 1.04 | 1.29
S fixed | 0.888 | 0.818 | 0.6 | 1.01 | 1.14 | 0.678 | 1.2 | 1.19 | 0.918 | 0.988
T fixed | 0.98 | 0.762 | 0.774 | 0.836 | 1.02 | 0.77 | 0.995 | 0.916 | 0.768 | 0.741
V fixed | 1.67 | 1.09 | 1.78 | 1 | 0.84 | 1.21 | 0.9 | 0.84 | 0.789 | 0.753
W fixed | 1.78 | 2.51 | 1.87 | 1.26 | 0.908 | 1.15 | 0.748 | 1.01 | 1.23 | 0.949
pThr fixed | 0.496 | 0.942 | 0.298 | 0.559 | 1.03 | 0.884 | 0.846 | 0.938 | 0.771 | 0.696
pTyr fixed | 2.43 | 2.39 | 0.408 | 0.758 | 0.987 | 2.02 | 1.13 | 1.06 | 1.07 | 0.764

FGFR4, construct: aa442-end, human (from UniProt P22455)
relative phosphorylation
Conditions | at +1 | at +2 | at +3 | at +4 | at +5 | at -1 | at -2 | at -3 | at -4 | at -5
A fixed | 0.811 | 0.623 | 0.572 | 0.823 | 2.94 | 0.585 | 1.06 | 0.944 | 1.14 | 1.01
D fixed | 0.352 | 1.4 | 0.818 | 1.14 | 0.931 | 2.54 | 1.38 | 1.84 | 1.64 | 1.42
E fixed | 0.566 | 2.01 | 0.647 | 1.39 | 0.71 | 2.03 | 1.75 | 2.52 | 2.01 | 1.38
F fixed | 1.94 | 1.17 | 1.42 | 0.906 | 1.21 | 0.91 | 0.593 | 0.712 | 0.88 | 0.793
G fixed | 0.379 | 0.43 | 0.621 | 1.21 | 0.692 | 0.401 | 1.08 | 1.09 | 1.22 | 1.31
H fixed | 1.55 | 0.88 | 0.767 | 1.13 | 0.954 | 0.985 | 1.05 | 1 | 0.977 | 1.08
I fixed | 1.8 | 1.21 | 2.44 | 0.869 | 0.75 | 1.89 | 0.902 | 0.626 | 0.732 | 0.929
K fixed | 0.29 | 0.37 | 0.27 | 0.602 | 0.913 | 0.311 | 0.693 | 0.614 | 0.699 | 0.845
L fixed | 1.25 | 1.05 | 2.03 | 0.841 | 0.922 | 1.12 | 0.839 | 0.639 | 0.808 | 0.898
M fixed | 1.53 | 1.1 | 1.53 | 1.07 | 0.841 | 0.828 | 0.681 | 0.834 | 0.767 | 0.908
N fixed | 0.341 | 1.04 | 0.425 | 0.873 | 0.832 | 1.03 | 1.05 | 1.25 | 1.03 | 1.1
P fixed | 0.49 | 0.708 | 0.891 | 1.37 | 0.769 | 0.65 | 1.19 | 0.862 | 1.1 | 1.17
Q fixed | 0.678 | 0.705 | 0.524 | 0.94 | 0.927 | 0.646 | 1.11 | 0.901 | 1.07 | 1.03
R fixed | 0.458 | 0.535 | 0.364 | 0.781 | 0.865 | 0.292 | 0.657 | 0.73 | 0.667 | 0.866
S fixed | 0.799 | 0.864 | 0.579 | 0.938 | 0.916 | 0.467 | 1.07 | 1.07 | 0.849 | 0.856
T fixed | 0.807 | 0.934 | 0.686 | 0.88 | 0.625 | 0.966 | 1 | 0.883 | 0.644 | 0.807
V fixed | 1.74 | 1.2 | 1.92 | 0.817 | 0.81 | 1.38 | 1.25 | 0.683 | 0.741 | 0.779
W fixed | 2.22 | 1.77 | 1.5 | 1.43 | 1.4 | 0.952 | 0.639 | 0.794 | 1.02 | 0.811
pThr fixed | 0.826 | 1.95 | 0.731 | 1 | 0.75 | 1.29 | 1.3 | 1.84 | 1.85 | 1.29
pTyr fixed | 3.85 | 6.17 | 1.24 | 1.34 | 0.82 | 7.16 | 1.79 | 2.69 | 2.45 | 1.36
